Measurements as given in patent CN111592595A (UNIV NANJING MEDICAL, dated 2020).

B1: 4A3 IgG重组蛋白 (human IgG1) (antibody, V domains shown)
VH: EVQLLESGGGLVQPGGSLRLSCAASGFTFSSYAMSWVRQAPGKGLEWVSSIASSGYYTDYADSVKGRFTISRDNSKNTLYLQMNSLRAEDTAVYYCAKDADSFDYWGQGTLVTVSS
VL: DIQMTQSPSSLSASVGDRVTITCRASQSISSYLNWYQQKPGKAPKLLIYAASYLQSGVPSRFSGSGSGTDFTLTISSLQPEDFATYYCQQAYSAPSTFGQGTKVEIK
B2: 4A3噬菌体 (4A3 scFv displayed on phage) (scFv)
scFv: EVQLLESGGGLVQPGGSLRLSCAASGFTFSSYAMSWVRQAPGKGLEWVSSIASSGYYTDYADSVKGRFTISRDNSKNTLYLQMNSLRAEDTAVYYCAKDADSFDYWGQGTLVTVSSGGGGSGGGGSGGGGSDIQMTQSPSSLSASVGDRVTITCRASQSISSYLNWYQQKPGKAPKLLIYAASYLQSGVPSRFSGSGSGTDFTLTISSLQPEDFATYYCQQAYSAPSTFGQGTKVEIK
notes: also called 4A3抗体; 4A3的噬菌体

Columns and labels:
[1] = biological target: SARS-Cov-2 spike (on lentiviral pseudovirus) (SARS-Cov-2, UniProt P0DTC2 14-1273); assay: cell-based or functional assay
SARS-Cov-2-RBD-his蛋白 = SARS-Cov-2-RBD-his蛋白 (SARS-Cov-2, UniProt P0DTC2 319-541)
SARS-Cov-1-RBD-hFc蛋白 = biological target: T1, SARS-Cov-1-RBD-hFc蛋白 (SARS-Cov-1, UniProt P59594 306-527); assay: phage ELISA on coated antigen, anti-M13-HRP detection
T1 construct: domain: RBD

Row | Binder | IC50 of inhibition of pseudovirus infection of ACE2-CHO cells (Luciferase活性) [1] [µg/mL] | Kd (SARS-Cov-2-RBD-his蛋白) [nM] | binding result (SARS-Cov-1-RBD-hFc蛋白)
1 | B1 | 0.28 | 3.62 | –
2 | B2 | – | – | no binding (tested: 5μg/ml coating)
